Test results: the RNAGym collection of RNA variant scans (doi:10.1021/acssynbio.7b00057)

B1: Pistol ribozyme (parent)
chain: GGGUCGUUGUUCCAUAAUCGCGUGGAUAUGGCACGCAAGUUUCUACCGGGCACCGUAAAUGUCCGACUGGAGCCGUUCGGGCGGCUAUAAACAGACCUCAGGCCCGAAGCGUGGCGGCACCUGCCGCCGGUGGUAAAAAAGAUCGGAAGAGCACACGUCU

Variants of: B1
Assay: aptazyme ON/OFF ratio, guanine; higher = stronger switching; co-transcriptional cleavage with and without guanine

Variant | aptazyme ON/OFF ratio
GGGUCGGGUUAAAAUAAUCGCGUGGAUAUGGCACGCAAGUUUCUACCGGGCACCGUAAAUGUCCGACUGGAGCCGUUCGGGCGGCUAUAAACAGACCUCAGGCCCGAAGCGUGGCGGCACCUGCCGCCGGUGGUAAAAAAGAUCGGAAGAGCACACGUCU [U7G U8G G9U U11A C12A C13A] | 1.07
GGGUCGGGUUAAGAUAAUCGCGUGGAUAUGGCACGCAAGUUUCUACCGGGCACCGUAAAUGUCCGACUGGAGCCGUUCGGGCGGCUAUAAACAGACCUCAGGCCCGAAGCGUGGCGGCACCUGCCGCCGGUGGUAAAAAAGAUCGGAAGAGCACACGUCU [U7G U8G G9U U11A C12A C13G] | 1.13
GGGUCGGGUUAAUAUAAUCGCGUGGAUAUGGCACGCAAGUUUCUACCGGGCACCGUAAAUGUCCGACUGGAGCCGUUCGGGCGGCUAUAAACAGACCUCAGGCCCGAAGCGUGGCGGCACCUGCCGCCGGUGGUAAAAAAGAUCGGAAGAGCACACGUCU [U7G U8G G9U U11A C12A C13U] | 1.18
GGGUCGGGUUAUGAUAAUCGCGUGGAUAUGGCACGCAAGUUUCUACCGGGCACCGUAAAUGUCCGACUGGAGCCGUUCGGGCGGCUAUAAACAGACCUCAGGCCCGAAGCGUGGCGGCACCUGCCGCCGGUGGUAAAAAAGAUCGGAAGAGCACACGUCU [U7G U8G G9U U11A C12U C13G] | 1.28
GGGUCGGGUUAUUAUAAUCGCGUGGAUAUGGCACGCAAGUUUCUACCGGGCACCGUAAAUGUCCGACUGGAGCCGUUCGGGCGGCUAUAAACAGACCUCAGGCCCGAAGCGUGGCGGCACCUGCCGCCGGUGGUAAAAAAGAUCGGAAGAGCACACGUCU [U7G U8G G9U U11A C12U C13U] | 1.23
GGGUCGGGUUAUAAUAAUCGCGUGGAUAUGGCACGCAAGUUUCUACCGGGCACCGUAAAUGUCCGACUGGAGCCGUUCGGGCGGCUAUAAACAGACCUCAGGCCCGAAGCGUGGCGGCACCUGCCGCCGGUGGUAAAAAAGAUCGGAAGAGCACACGUCU [U7G U8G G9U U11A C12U C13A] | 1.33
GGGUCGGGUUCCUAUAAUCGCGUGGAUAUGGCACGCAAGUUUCUACCGGGCACCGUAAAUGUCCGACUGGAGCCGUUCGGGCGGCUAUAAACAGACCUCAGGCCCGAAGCGUGGCGGCACCUGCCGCCGGUGGUAAAAAAGAUCGGAAGAGCACACGUCU [U7G U8G G9U U11C C13U] | 1.41
GGGUCGGGUUCCGAUAAUCGCGUGGAUAUGGCACGCAAGUUUCUACCGGGCACCGUAAAUGUCCGACUGGAGCCGUUCGGGCGGCUAUAAACAGACCUCAGGCCCGAAGCGUGGCGGCACCUGCCGCCGGUGGUAAAAAAGAUCGGAAGAGCACACGUCU [U7G U8G G9U U11C C13G] | 1.1
GGGUCGGGUUCCAAUAAUCGCGUGGAUAUGGCACGCAAGUUUCUACCGGGCACCGUAAAUGUCCGACUGGAGCCGUUCGGGCGGCUAUAAACAGACCUCAGGCCCGAAGCGUGGCGGCACCUGCCGCCGGUGGUAAAAAAGAUCGGAAGAGCACACGUCU [U7G U8G G9U U11C C13A] | 1.4
GGGUCGGGUUCAAAUAAUCGCGUGGAUAUGGCACGCAAGUUUCUACCGGGCACCGUAAAUGUCCGACUGGAGCCGUUCGGGCGGCUAUAAACAGACCUCAGGCCCGAAGCGUGGCGGCACCUGCCGCCGGUGGUAAAAAAGAUCGGAAGAGCACACGUCU [U7G U8G G9U U11C C12A C13A] | 1.23
GGGUCGGGUUCAUAUAAUCGCGUGGAUAUGGCACGCAAGUUUCUACCGGGCACCGUAAAUGUCCGACUGGAGCCGUUCGGGCGGCUAUAAACAGACCUCAGGCCCGAAGCGUGGCGGCACCUGCCGCCGGUGGUAAAAAAGAUCGGAAGAGCACACGUCU [U7G U8G G9U U11C C12A C13U] | 1.23
GGGUCGGGUUCAGAUAAUCGCGUGGAUAUGGCACGCAAGUUUCUACCGGGCACCGUAAAUGUCCGACUGGAGCCGUUCGGGCGGCUAUAAACAGACCUCAGGCCCGAAGCGUGGCGGCACCUGCCGCCGGUGGUAAAAAAGAUCGGAAGAGCACACGUCU [U7G U8G G9U U11C C12A C13G] | 1.15
GGGUCGGGUUCGAAUAAUCGCGUGGAUAUGGCACGCAAGUUUCUACCGGGCACCGUAAAUGUCCGACUGGAGCCGUUCGGGCGGCUAUAAACAGACCUCAGGCCCGAAGCGUGGCGGCACCUGCCGCCGGUGGUAAAAAAGAUCGGAAGAGCACACGUCU [U7G U8G G9U U11C C12G C13A] | 1.14
GGGUCGGGUUCGGAUAAUCGCGUGGAUAUGGCACGCAAGUUUCUACCGGGCACCGUAAAUGUCCGACUGGAGCCGUUCGGGCGGCUAUAAACAGACCUCAGGCCCGAAGCGUGGCGGCACCUGCCGCCGGUGGUAAAAAAGAUCGGAAGAGCACACGUCU [U7G U8G G9U U11C C12G C13G] | 1.17
GGGUCGGGUUCGUAUAAUCGCGUGGAUAUGGCACGCAAGUUUCUACCGGGCACCGUAAAUGUCCGACUGGAGCCGUUCGGGCGGCUAUAAACAGACCUCAGGCCCGAAGCGUGGCGGCACCUGCCGCCGGUGGUAAAAAAGAUCGGAAGAGCACACGUCU [U7G U8G G9U U11C C12G C13U] | 1.43
GGGUCGGGUUGCCAUAAUCGCGUGGAUAUGGCACGCAAGUUUCUACCGGGCACCGUAAAUGUCCGACUGGAGCCGUUCGGGCGGCUAUAAACAGACCUCAGGCCCGAAGCGUGGCGGCACCUGCCGCCGGUGGUAAAAAAGAUCGGAAGAGCACACGUCU [U7G U8G G9U U11G] | 2.02
GGGUCGGGUUCCCAUAAUCGCGUGGAUAUGGCACGCAAGUUUCUACCGGGCACCGUAAAUGUCCGACUGGAGCCGUUCGGGCGGCUAUAAACAGACCUCAGGCCCGAAGCGUGGCGGCACCUGCCGCCGGUGGUAAAAAAGAUCGGAAGAGCACACGUCU [U7G U8G G9U U11C] | 3.17
GGGUCGGGUUACCAUAAUCGCGUGGAUAUGGCACGCAAGUUUCUACCGGGCACCGUAAAUGUCCGACUGGAGCCGUUCGGGCGGCUAUAAACAGACCUCAGGCCCGAAGCGUGGCGGCACCUGCCGCCGGUGGUAAAAAAGAUCGGAAGAGCACACGUCU [U7G U8G G9U U11A] | 2.18

Variant | aptazyme ON/OFF ratio
GGGUCGGGUGGCGAUAAUCGCGUGGAUAUGGCACGCAAGUUUCUACCGGGCACCGUAAAUGUCCGACUGGAGCCGUUCGGGCGGCUAUAAACAGACCUCAGGCCCGAAGCGUGGCGGCACCUGCCGCCGGUGGUAAAAAAGAUCGGAAGAGCACACGUCU [U7G U8G G9U U10G U11G C13G] | 1.08
GGGUCGGGUGGCUAUAAUCGCGUGGAUAUGGCACGCAAGUUUCUACCGGGCACCGUAAAUGUCCGACUGGAGCCGUUCGGGCGGCUAUAAACAGACCUCAGGCCCGAAGCGUGGCGGCACCUGCCGCCGGUGGUAAAAAAGAUCGGAAGAGCACACGUCU [U7G U8G G9U U10G U11G C13U] | 1.11
GGGUCGGGUUCUUAUAAUCGCGUGGAUAUGGCACGCAAGUUUCUACCGGGCACCGUAAAUGUCCGACUGGAGCCGUUCGGGCGGCUAUAAACAGACCUCAGGCCCGAAGCGUGGCGGCACCUGCCGCCGGUGGUAAAAAAGAUCGGAAGAGCACACGUCU [U7G U8G G9U U11C C12U C13U] | 1.33
GGGUCGGGUUCUAAUAAUCGCGUGGAUAUGGCACGCAAGUUUCUACCGGGCACCGUAAAUGUCCGACUGGAGCCGUUCGGGCGGCUAUAAACAGACCUCAGGCCCGAAGCGUGGCGGCACCUGCCGCCGGUGGUAAAAAAGAUCGGAAGAGCACACGUCU [U7G U8G G9U U11C C12U C13A] | 1.35
GGGUCGGGUUCUGAUAAUCGCGUGGAUAUGGCACGCAAGUUUCUACCGGGCACCGUAAAUGUCCGACUGGAGCCGUUCGGGCGGCUAUAAACAGACCUCAGGCCCGAAGCGUGGCGGCACCUGCCGCCGGUGGUAAAAAAGAUCGGAAGAGCACACGUCU [U7G U8G G9U U11C C12U C13G] | 1.38
GGGUCGGGUUAGGAUAAUCGCGUGGAUAUGGCACGCAAGUUUCUACCGGGCACCGUAAAUGUCCGACUGGAGCCGUUCGGGCGGCUAUAAACAGACCUCAGGCCCGAAGCGUGGCGGCACCUGCCGCCGGUGGUAAAAAAGAUCGGAAGAGCACACGUCU [U7G U8G G9U U11A C12G C13G] | 1.06
GGGUCGGGUUAGUAUAAUCGCGUGGAUAUGGCACGCAAGUUUCUACCGGGCACCGUAAAUGUCCGACUGGAGCCGUUCGGGCGGCUAUAAACAGACCUCAGGCCCGAAGCGUGGCGGCACCUGCCGCCGGUGGUAAAAAAGAUCGGAAGAGCACACGUCU [U7G U8G G9U U11A C12G C13U] | 1.16
GGGUCGGGUUAGAAUAAUCGCGUGGAUAUGGCACGCAAGUUUCUACCGGGCACCGUAAAUGUCCGACUGGAGCCGUUCGGGCGGCUAUAAACAGACCUCAGGCCCGAAGCGUGGCGGCACCUGCCGCCGGUGGUAAAAAAGAUCGGAAGAGCACACGUCU [U7G U8G G9U U11A C12G C13A] | 1.15
GGGUCGGGUUGACAUAAUCGCGUGGAUAUGGCACGCAAGUUUCUACCGGGCACCGUAAAUGUCCGACUGGAGCCGUUCGGGCGGCUAUAAACAGACCUCAGGCCCGAAGCGUGGCGGCACCUGCCGCCGGUGGUAAAAAAGAUCGGAAGAGCACACGUCU [U7G U8G G9U U11G C12A] | 1.32
GGGUCGGGUUAUCAUAAUCGCGUGGAUAUGGCACGCAAGUUUCUACCGGGCACCGUAAAUGUCCGACUGGAGCCGUUCGGGCGGCUAUAAACAGACCUCAGGCCCGAAGCGUGGCGGCACCUGCCGCCGGUGGUAAAAAAGAUCGGAAGAGCACACGUCU [U7G U8G G9U U11A C12U] | 1.54
GGGUCGGGUUAGCAUAAUCGCGUGGAUAUGGCACGCAAGUUUCUACCGGGCACCGUAAAUGUCCGACUGGAGCCGUUCGGGCGGCUAUAAACAGACCUCAGGCCCGAAGCGUGGCGGCACCUGCCGCCGGUGGUAAAAAAGAUCGGAAGAGCACACGUCU [U7G U8G G9U U11A C12G] | 1.29
GGGUCGGGUUAACAUAAUCGCGUGGAUAUGGCACGCAAGUUUCUACCGGGCACCGUAAAUGUCCGACUGGAGCCGUUCGGGCGGCUAUAAACAGACCUCAGGCCCGAAGCGUGGCGGCACCUGCCGCCGGUGGUAAAAAAGAUCGGAAGAGCACACGUCU [U7G U8G G9U U11A C12A] | 1.43
GGGUCGGGUUCACAUAAUCGCGUGGAUAUGGCACGCAAGUUUCUACCGGGCACCGUAAAUGUCCGACUGGAGCCGUUCGGGCGGCUAUAAACAGACCUCAGGCCCGAAGCGUGGCGGCACCUGCCGCCGGUGGUAAAAAAGAUCGGAAGAGCACACGUCU [U7G U8G G9U U11C C12A] | 1.8
GGGUCGGGUUCUCAUAAUCGCGUGGAUAUGGCACGCAAGUUUCUACCGGGCACCGUAAAUGUCCGACUGGAGCCGUUCGGGCGGCUAUAAACAGACCUCAGGCCCGAAGCGUGGCGGCACCUGCCGCCGGUGGUAAAAAAGAUCGGAAGAGCACACGUCU [U7G U8G G9U U11C C12U] | 1.65
GGGUCGGGUUCGCAUAAUCGCGUGGAUAUGGCACGCAAGUUUCUACCGGGCACCGUAAAUGUCCGACUGGAGCCGUUCGGGCGGCUAUAAACAGACCUCAGGCCCGAAGCGUGGCGGCACCUGCCGCCGGUGGUAAAAAAGAUCGGAAGAGCACACGUCU [U7G U8G G9U U11C C12G] | 1.43
GGGUCGGGUUACUAUAAUCGCGUGGAUAUGGCACGCAAGUUUCUACCGGGCACCGUAAAUGUCCGACUGGAGCCGUUCGGGCGGCUAUAAACAGACCUCAGGCCCGAAGCGUGGCGGCACCUGCCGCCGGUGGUAAAAAAGAUCGGAAGAGCACACGUCU [U7G U8G G9U U11A C13U] | 1.38
GGGUCGGGUUACAAUAAUCGCGUGGAUAUGGCACGCAAGUUUCUACCGGGCACCGUAAAUGUCCGACUGGAGCCGUUCGGGCGGCUAUAAACAGACCUCAGGCCCGAAGCGUGGCGGCACCUGCCGCCGGUGGUAAAAAAGAUCGGAAGAGCACACGUCU [U7G U8G G9U U11A C13A] | 1.33
GGGUCGGGUUACGAUAAUCGCGUGGAUAUGGCACGCAAGUUUCUACCGGGCACCGUAAAUGUCCGACUGGAGCCGUUCGGGCGGCUAUAAACAGACCUCAGGCCCGAAGCGUGGCGGCACCUGCCGCCGGUGGUAAAAAAGAUCGGAAGAGCACACGUCU [U7G U8G G9U U11A C13G] | 1.09
